Marks after values point to notes of the source that are not given here.
Tests used:
[1] = Inhibitory effect on gastric emptying (acetaminophen exposure) in normal rats (Example 8); assay type: in vivo; details: rats, 30 mg/kg oral, positive control
Description: Therefore, this example was performed to investigate the inhibitory effect on gastric emptying when the novel long-acting GDF15 fusion protein was administered at the doses equal to the effective dose, higher than the maximum effective dose, or in combination with a GLP-1 receptor agonist to rats. 6-week-old male SD rats (Orient Bio, Republic of Korea) were purchased from Hallym Lab. Animal Inc., Republic of Korea. Animals were acclimated for 7 days. On the day of drug administration, the rats were grouped based on the average body weight of individual rats (n=5 per group) and fasted for at least 6 hours before oral administration of acetaminophen. Then, 0.1, 1, and 10 nmol/kg of FM9-6+Fc_hole, 10 nmol/kg of semaglutide (long-acting GLP-1 derivative, SEQ ID NO: 114), and combination of FM9-6+Fc_hole and semaglutide (1+10 nmol/kg) were subcutaneously administered. The semaglutide was Ozempic® (semaglutide) from Novo NorDisk. As a negative control drug, D-PBS (normal vehicle) was subcutaneously administered, and as a positive control drug, 30 mg/kg of loperamide was orally administered 45 minutes before acetaminophen administration. On 3, 24 and 72 hours after a single dose of the test articles, acetaminophen was orally administered at 100 mg/kg to rats, and blood samples were collected before and at 30, 60, 90, 120 and 150 minutes after acetaminophen administration. The plasma concentration of acetaminophen was analyzed, and the pharmacokinetic profiles and the systemic exposures of acetaminophen were compared to evaluate the inhibitory effect on gastric emptying among the groups.

[2] = molecular target: T1, GFRAL/RET/SRE-luc-overexpressing HEK293 cell line (Homo sapiens, UniProt Q6UXV0); test: Functional activity of long-acting GDF15 fusion protein (Bright-Glo luciferase assay); assay type: cell-based; details: for EC50: luciferase RLU, 4 hours reaction; for Emax (%): relative to FM9-6+Fc_hole (Emax 100%); for EC50 values (in words) / Emax values (in words): compared with the other linkers
T1 construct: expressed in transfected cells; host or cells: HEK293 (human embryonic kidney 293), overexpressing GFRAL, RET and an SRE-luciferase reporter
Description: Two variants (FM9+Fc_hole, FM11+Fc_hole) were compared and evaluated for GDF15 activity depending on the linker type and length. The GDF15 activity was measured using a Bright-Glo™ luciferase assay kit (Promega) and a GFRAL/RET/SRE-luc-overexpressing HEK293 cell line (Human embryonic kidney 293).
Specifically, 1×10^5 GFRAL/RET/SRE-luc-overexpressing HEK293 cells were dispended in DMEM containing 10% FBS in each well of a 96-well-plate, followed by culture at 37° C. and 5% CO2 for 24 hours. After 24 hours, each medium of the 96-well plate was replaced with 50 μl of a serum-free medium, followed by culture at 37° C. and 5% CO2 for 4 hours.
In addition, the long-acting GDF15 fusion protein produced in Example 1 was prepared by 3-fold serial dilution from a concentration of 2000 nM using a serum-free medium. Thereafter, 50 μl of the long-acting GDF15 fusion protein dilution was added to each well containing 50 μl of the replaced serum-free medium and the GERAL/RET/SRE-luc cell line so that the actual concentration thereof was serially diluted 3-fold from 1000 nM, followed by reaction at 37° C. and 5% CO2 for 4 hours. After 4 hours, each well was treated with 100 μl of a Bright-Glo™ solution prepared by adding a Bright-Glo™ buffer to a Bright-Glo™ substrate, followed by reaction at room temperature for 1 minute.
Thereafter, the reaction value (relative light units, RLU) was measured using a microplate reader (Perkin Elmer, Wallac Victor X5) capable of measuring luminescence. The results thereof are shown in Table 2 below and in FIGS. 1 and 2. Here, the functional activity of the long-acting GDF15 fusion protein depending on the GDF15 sequence, linker type, and length was compared based on the in-vitro GDF15 activity of FM9-6+Fc_hole (Emax 100%).

[3] = Pharmacokinetics of long-acting GDF15 fusion protein (dimer) in C57BL/6N mice; assay type: in vivo; details: 1 mg/kg subcutaneous; for Cmax: active GDF15 in serum by ELISA
Description: 6-week-old male C57BL/6N mice (Orient Bio, Republic of Korea) were purchased from Hallym Lab. Animal Inc., Republic of Korea. Animals were acclimated for 7 days, and on the day of drug administration, the mice were grouped based on the average body weight of individual mice (n=3 per blood sampling time per group). Then, FM9-4+Fc_hole, FM9-6+Fc_hole, FM11-4+Fc_hole, and FM11-6+Fc_hole were subcutaneously administered at 1 mg/kg to each group, and blood samples were collected at 4, 24, 48, 72, 96, 120, 168, and 240 hours after administration. Determination of active GDF15 in serum was achieved by enzyme-linked immunosorbent assay (ELISA), and pharmacokinetic parameters of each long-acting GDF15 fusion protein (dimer) are shown in Table 3 below.

T1 sequence (Q6UXV0 19-394, species assumed): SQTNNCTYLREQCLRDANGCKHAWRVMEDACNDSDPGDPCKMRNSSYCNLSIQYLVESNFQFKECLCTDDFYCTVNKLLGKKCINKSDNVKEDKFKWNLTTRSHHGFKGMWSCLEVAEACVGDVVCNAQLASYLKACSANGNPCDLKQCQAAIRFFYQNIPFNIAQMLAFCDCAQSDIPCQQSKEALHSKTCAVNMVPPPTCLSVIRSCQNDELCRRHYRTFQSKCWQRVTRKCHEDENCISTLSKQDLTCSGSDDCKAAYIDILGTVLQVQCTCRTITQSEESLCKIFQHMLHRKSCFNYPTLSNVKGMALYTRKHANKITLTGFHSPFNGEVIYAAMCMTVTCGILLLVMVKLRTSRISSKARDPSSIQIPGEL
T1 sequence (P07949 29-1114 partner, species assumed): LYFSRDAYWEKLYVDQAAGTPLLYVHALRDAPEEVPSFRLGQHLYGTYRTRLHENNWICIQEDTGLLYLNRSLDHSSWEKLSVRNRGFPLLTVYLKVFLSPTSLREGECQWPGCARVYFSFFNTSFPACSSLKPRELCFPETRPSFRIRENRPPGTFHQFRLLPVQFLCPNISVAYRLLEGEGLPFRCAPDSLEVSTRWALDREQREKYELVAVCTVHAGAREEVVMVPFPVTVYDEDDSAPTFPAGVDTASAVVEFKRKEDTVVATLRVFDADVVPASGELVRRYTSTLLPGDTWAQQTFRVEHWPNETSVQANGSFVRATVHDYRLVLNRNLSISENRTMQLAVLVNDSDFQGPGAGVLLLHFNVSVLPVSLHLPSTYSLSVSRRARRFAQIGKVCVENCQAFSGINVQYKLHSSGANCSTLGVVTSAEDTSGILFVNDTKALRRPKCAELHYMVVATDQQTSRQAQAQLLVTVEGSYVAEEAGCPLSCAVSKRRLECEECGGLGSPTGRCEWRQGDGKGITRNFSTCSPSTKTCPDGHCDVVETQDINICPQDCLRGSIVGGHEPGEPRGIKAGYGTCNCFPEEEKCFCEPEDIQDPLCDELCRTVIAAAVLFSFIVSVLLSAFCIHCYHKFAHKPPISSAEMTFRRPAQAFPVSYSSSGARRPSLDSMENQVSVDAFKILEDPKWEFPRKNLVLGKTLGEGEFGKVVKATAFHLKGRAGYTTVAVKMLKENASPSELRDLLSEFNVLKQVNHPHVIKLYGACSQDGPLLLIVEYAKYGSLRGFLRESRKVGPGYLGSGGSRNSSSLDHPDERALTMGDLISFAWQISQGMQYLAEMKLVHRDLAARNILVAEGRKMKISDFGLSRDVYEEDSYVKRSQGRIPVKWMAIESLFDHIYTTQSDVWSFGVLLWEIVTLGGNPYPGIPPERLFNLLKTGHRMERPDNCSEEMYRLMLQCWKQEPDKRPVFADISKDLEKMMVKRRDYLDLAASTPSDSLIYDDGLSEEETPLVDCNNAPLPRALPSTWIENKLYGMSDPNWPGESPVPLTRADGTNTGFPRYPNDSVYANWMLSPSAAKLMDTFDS

Compound	EC50 [2] [nM]	Emax (%) [2] [%]	AUClast [3] [µg·h/mL]	CL/F [3] [mL/h/kg]	T1/2,app [3] [h]	Tmax [3] [h]	Cmax [3] [ng/mL]	other results
CN(C)C(=O)C(CCN1CCC(O)(c2ccc(Cl)cc2)CC1)(c1ccccc1)c1ccccc1 [Loperamide, loperamide, reference compound]	–	–	–	–	–	–	–	AUClast of acetaminophen (μg · min/mL), 3 hr ([1]; 3 hr): 1565.13 µg·min/mL; AUClast of acetaminophen (μg · min/mL), 24 hr ([1]; 24 hr): 761.04** μg · min/mL; AUClast of acetaminophen (μg · min/mL), 72 hr ([1]; 72 hr): 996.36*** μg · min/mL
FM9-4 + Fc_hole: long-acting GDF15 fusion protein (dimer): GDF15 ΔN2, S64R, IgG1 Fc_knob/Fc_hole, linker GS(EEEA)6; SEQ ID NOs: 101 and 47	–	–	750.49702	1.30	36.84	24	8421.37	EC50 values (in words) [2]: relatively low EC50 values; Emax values (in words) [2]: high Emax values
FM11-4 + Fc_hole: long-acting GDF15 fusion protein (dimer): GDF15 ΔN3, G4N, D5S, H6T, S64R, IgG1 Fc_knob/Fc_hole, linker GS(EEEA)6; SEQ ID NOs: 107 and 47	–	–	690.21308	1.41	40.61	24	7200.02	EC50 values (in words) [2]: relatively low EC50 values; Emax values (in words) [2]: high Emax values
FM11-6 + Fc_hole: long-acting GDF15 fusion protein (dimer): GDF15 ΔN3, G4N, D5S, H6T, S64R, IgG1 Fc_knob/Fc_hole, linker GS(EAAAK)5; SEQ ID NOs: 109 and 47	–	–	116.43394	8.43	25.84	24	1547.77	–

Now from value to compound, other results behind:

EC50 [2] [nM]	Emax (%) [2] [%]	Compound	AUClast [3] [µg·h/mL]	CL/F [3] [mL/h/kg]	T1/2,app [3] [h]	Tmax [3] [h]	Cmax [3] [ng/mL]	other results
9.5	110.8	FM9-2 + Fc_hole: long-acting GDF15 fusion protein (dimer): GDF15 ΔN2, S64R, IgG1 Fc_knob/Fc_hole, linker GS(G4S)5; SEQ ID NOs: 99 and 47	–	–	–	–	–	–
9.3	95.6	FM9-3 + Fc_hole: long-acting GDF15 fusion protein (dimer): GDF15 ΔN2, S64R, IgG1 Fc_knob/Fc_hole, linker GS(G4S)7; SEQ ID NOs: 100 and 47	–	–	–	–	–	–
7.7	79.4	FM11-2 + Fc_hole: long-acting GDF15 fusion protein (dimer): GDF15 ΔN3, G4N, D5S, H6T, S64R, IgG1 Fc_knob/Fc_hole, linker GS(G4S)5; SEQ ID NOs: 105 and 47	–	–	–	–	–	–
7.8	81.0	FM11-3 + Fc_hole: long-acting GDF15 fusion protein (dimer): GDF15 ΔN3, G4N, D5S, H6T, S64R, IgG1 Fc_knob/Fc_hole, linker GS(G4S)7; SEQ ID NOs: 106 and 47	–	–	–	–	–	–

From patent US20240238380A1, “COMPOSITION FOR COMBINATION THERAPY COMPRISING GROWTH DIFFERENTIATION FACTOR-15 VARIANT AND GLUCAGON-LIKE PEPTIDE-1 RECEPTOR AGONIST” (YUHAN CORPORATION, priority 2021, published 2024)
